The assay addresses T1, recombinant FcRn (FCGRT ectodomain with β-2-Microglobulin), expressed in CHO-S cells (human, UniProt P55899 24-297; P61769 21-119).
T1 construct: signal peptide in the construct; ectodomain of human FCGRT (FcRn heavy chain), Met1-Ser297, followed by a C-terminal thrombin cleavage site before the tags; β-2-Microglobulin, Met1-Met119; also called neonatal Fc receptor; source: CHO-S cells, electroporated with both plasmids, purified from the media (StrepTrap XT)
Briefly: BLI; HIS1K biosensors loaded with HAstV-8 spike (6 μg/ml); FcRn in solution, 1,000 to 62.5 nM (mutant spike: 2,000 nM only); 0.1M sodium phosphate, 150 mM NaCl, 0.05% Tween-20, pH 7.0; 25 °C; 1:1 binding model; triplicate. Particulars: both partners purified. (In general: In BLI a coated tip is dipped into the sample, and binding shifts an interference pattern.)

T1 sequence (P55899 24-297, chain 1 of 2): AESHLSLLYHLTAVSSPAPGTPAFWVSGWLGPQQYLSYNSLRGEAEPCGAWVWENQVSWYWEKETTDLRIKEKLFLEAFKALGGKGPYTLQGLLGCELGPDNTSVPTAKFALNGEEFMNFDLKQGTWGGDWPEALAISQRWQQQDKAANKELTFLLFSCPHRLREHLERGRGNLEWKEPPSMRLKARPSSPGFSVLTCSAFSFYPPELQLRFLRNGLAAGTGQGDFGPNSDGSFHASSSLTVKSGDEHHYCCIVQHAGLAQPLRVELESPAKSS
T1 sequence (P61769 21-119, chain 2 of 2): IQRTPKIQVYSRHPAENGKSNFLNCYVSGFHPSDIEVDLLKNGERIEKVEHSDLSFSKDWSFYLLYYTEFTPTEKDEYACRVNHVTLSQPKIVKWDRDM

B1: recombinant WT HAstV-8 capsid spike (domain or fragment)
chain: GEQFRVLLTVGPPMAPNTANSQNWVNKTIVPPENQYTVKIGIDLEHYTTMQGFTPVESVSWYTADFQPSDEPSPIPGLYARVNNTKKADVYGVQQFKSSHTNNRHQITSVFLVRVTTSFQVINYTSYFIRGAESGSNVSNLKIRDQTYHTPLQFTQGKWYLLTSTVMHDGPTSSGWVWMNQELTNNIAYRVDPGMMYLITPPPAASQLYFELHTVLPQA
modifications: Wild-type spike. Limits are not printed: about 429-647 is taken by convention from related HAstV spike constructs and is close to the VP25 feature 424-648. The C-terminal thrombin site and His10 tag …
In general, Kd refers to the concentration at which binding is half-saturated. Take B1: the Kd was ~280 nM.

Values taken from publication PMC12289001, “Functional characterization of DPP4 and FcRn as receptor and coreceptor for classical human astroviruses in Caco-2 cells” (PLOS Pathogens, 2025).
